Test [1] relates to human IL-8 receptors (type A or B). The test can be described thus: Inositol phosphate accumulation in COS-1 cells transfected with human IL-8 receptor plasmids with or without Ga16/Ga15. The class given is cell-based. The following applies: COS cells expressing IL-8 receptors without cotransfected Ga16 or Ga15, absence or presence of IL-8.
The target in test [2] is human IL-8 receptor types A or B. Conditions: values previously reported (Holmes et al. 1991; Murphy and Tiffany 1991); cited from earlier work.
In the next test the target is T1, KSHV GPCR (Human herpesvirus 8 type P, UniProt Q98146).
T1 construct: expressed in transfected cells; host or cells: COS-1
T1 sequence (Q98146 1-342): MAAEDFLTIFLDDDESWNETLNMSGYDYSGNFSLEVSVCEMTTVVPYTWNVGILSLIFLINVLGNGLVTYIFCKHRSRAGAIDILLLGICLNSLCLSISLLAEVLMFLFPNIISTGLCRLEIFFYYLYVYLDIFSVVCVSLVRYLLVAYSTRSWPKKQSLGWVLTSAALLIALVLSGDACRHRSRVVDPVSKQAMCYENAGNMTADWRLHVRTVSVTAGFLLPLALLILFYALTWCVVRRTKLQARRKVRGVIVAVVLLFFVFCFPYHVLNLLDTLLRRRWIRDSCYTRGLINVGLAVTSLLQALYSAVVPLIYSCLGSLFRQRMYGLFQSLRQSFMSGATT
In words: Competition binding of 125I-IL-8 by unlabelled chemokines to COS-1 cells transfected with pcKSHV GPCR. The following applies: for binding to KSHV GPCR (in words): competition analysis with 125I-IL-8, FIGS. 2 and 3; for Ki: competition of human recombinant 125I-IL-8, COS-1 cells transfected with pcKSHV GPCR, 4° C., 2 hrs, read-out: Kd or Ki. The procedure: Data represent the mean of triplicate determinations in a representative of two experiments;
Competition binding. The coding sequence of KSHV GPCR was cleaved from its original subcloning plasmid (Cesarman et al. 1996) by digestion with NcoI and inserted into the EcoRV site of the eukaryotic expression vector pcDNA3.1(+) (Invitrogen), producing the pcKSHV GPCR used for expression in mammalian cells. COS-1 cells (American Type Culture Collection) were grown in 100 mm petri dishes in Dulbecco's modified Eagle's medium (DMEM; GIBCO-BRL) with 5% Nu-Serum (Collaborative Research) in a humidified incubator in an atmosphere of 5% CO2 at 37° C. […] Approximately 100,000 cells per well (in 12-well plates) were washed with Hank's balanced salt solution (HBSS) containing 25 mM HEPES, pH 7.4 (GIBCO-BRL). […] The binding buffer contained bovine serum albumin (BSA; 1 mg/ml), bacitracin (1 mg/ml), and phenyl methyl sulphonyl fluoride (PMSF; 1 mM). Assays were terminated by aspirating the binding buffer, washing three times with chilled HBSS and solubilizing the cells with 0.4 N NaOH. An aliquot of this solution was counted in a gamma counter and the data expressed as percent of maximum bound. Binding and dose-response curves were analyzed using Prism software (GraphPad, Inc.).

The term Kd denotes the equilibrium constant for the complex coming apart. For “IL-8: member of the family of C-X-C chemokines; used as radioligand and unlabelled competitor”, the “accumulation of IPs” value in test [1] is reported as “little measurable accumulation”. In addition, the Kd in test [2] was 0.8 to 1 nM.

With MCP-1: chemokine of the C-C family, the “binding to KSHV GPCR (in words)” value with KSHV GPCR is on record as “do not”.

For orientation: Ki means the equilibrium dissociation constant of an inhibitor or competing ligand from its target. Turning to MGSA: C-X-C chemokine, in the test with KSHV GPCR, the “binding to KSHV GPCR (in words)” value is reported as “also bind to KSHV GPCR” and the Ki was 270 nM.

PF-4: C-X-C chemokine: in the test with KSHV GPCR, the “binding to KSHV GPCR (in words)” value was “also bind to KSHV GPCR” and the Ki worked out at 150 nM.

On to RANTES: chemokine of the C-C family, for which, in the test with KSHV GPCR, the “binding to KSHV GPCR (in words)” value is listed as “bind to KSHV GPCR” and the Ki stood at 520 nM.

B1: MIP-1b: chemokine of the C-C family (protein, UniProt P13236 24-92, looked up)
C-C motif chemokine 4: APMGSDPPTACCFSYTARKLPRNFVVDYYETSSLCSQPAVVFQTKRSKQVCADPSESWVQEYVYDLELN
Consider B1, for which the “binding to KSHV GPCR (in words)” value in the test with KSHV GPCR is recorded as “do not”.

B2: I-309: chemokine of the C-C family (protein, UniProt P22362 24-96, looked up)
C-C motif chemokine 1: KSMQVPFSRCCFSFAEQEIPLRAILCYRNTSSICSNEGLIFKLKRGKEACALDTVGWVQRHRKMLRHCPSKRK
With B2, in the test with KSHV GPCR, the “binding to KSHV GPCR (in words)” value is “bind to KSHV GPCR” and the Ki was determined as 110 nM.

B3: NAP-2: C-X-C chemokine (protein, UniProt P02775 59-128, looked up)
Neutrophil-activating peptide …: AELRCMCIKTTSGIHPKNIQSLEVIGKGTHCNQVEVIATLKDGRKICLDPDAPRIKKIVQKKLAGDESAD
modifications: Neutrophil-activating peptide 2
notes: C-X-C chemokine
In the case of B3, in the test with KSHV GPCR, the “binding to KSHV GPCR (in words)” value is reported as “also bind to KSHV GPCR” and the Ki turned out to be 23 nM.

The record behind these values is patent US6087115A, “Methods of identifying negative antagonists for G protein coupled receptors” (Cornell Research Foundation, Inc., priority 1997, dated 2000).
